From the supplement of paper PMC9732359
± gives the uncertainty stated by the source.

Assay: protein stability index of a GFP-peptide fusion (yeast GPS) (PSI 1-4); higher = more stable; sorted into four equal gates, so the index is relative within each strain
How it was run: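 Tiled yeast protein peptides of 17 residues were each joined downstream of GFP, on plasmids that also express Cherry. The pooled library was maintained in yeast, and mid-log cultures in leucine-free medium were sorted into four equal gates on the GFP/Cherry ratio. Plasmids from every gate were amplified by PCR and sequenced on Illumina, with barcodes linking reads to strains. The protein stability index of a peptide is its gate-number-weighted read frequency summed over the gates.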

Sequence: TMETKTLPEKKQFDSIF [SIR4]
- protein stability index (doa10∆): 2.44 ± 0.047
- protein stability index (pdr5∆): 2.69 ± 0.057
- protein stability index (san1∆): 2.84 ± 0.047
- protein stability index (ubr1∆): 2.65 ± 0.043

Sequence: NRYAYVLSSLMFANMKV [LRP1]
- protein stability index (doa10∆): 2.47 ± 0.064
- protein stability index (pdr5∆): 2.25 ± 0.058
- protein stability index (san1∆): 2.08 ± 0.068
- protein stability index (ubr1∆): 3.01 ± 0.047

Sequence: RKYDLFQNLELETEQLS [SMC2]
- protein stability index (doa10∆): 3.21 ± 0.073
- protein stability index (pdr5∆): 3.1 ± 0.076
- protein stability index (san1∆): 1.99 ± 0.17
- protein stability index (ubr1∆): 2.17 ± 0.059

Sequence: ESLREIPYGPDFDNIEF [SEC65]
- protein stability index (doa10∆): 3.1 ± 0.072
- protein stability index (pdr5∆): 3.12 ± 0.067
- protein stability index (san1∆): 2.92 ± 0.087
- protein stability index (ubr1∆): 3.04 ± 0.057

Sequence: NVQLRDVIATEPQGAVT [SMD3]
- protein stability index (doa10∆): 2.96 ± 0.069
- protein stability index (pdr5∆): 2.98 ± 0.1
- protein stability index (san1∆): 2.39 ± 0.09
- protein stability index (ubr1∆): 2.67 ± 0.071

Sequence: QDLSRNTLGKGQNCLDI [SNU114]
- protein stability index (doa10∆): 3.35 ± 0.12
- protein stability index (pdr5∆): 3.28 ± 0.12
- protein stability index (san1∆): 3.28 ± 0.16
- protein stability index (ubr1∆): 3.61 ± 0.15

Sequence: LMQNMMNMFGGGMGGGM [SRP54]
- protein stability index (doa10∆): 1.85 ± 0.16
- protein stability index (pdr5∆): 2.53 ± 0.063
- protein stability index (san1∆): 2.47 ± 0.17
- protein stability index (ubr1∆): 2.27 ± 0.081

Sequence: HVLYKESKGNAFKHKRA [RPL19A]
- protein stability index (doa10∆): 2.97 ± 0.079
- protein stability index (pdr5∆): 2.49 ± 0.12
- protein stability index (san1∆): 2.59 ± 0.08
- protein stability index (ubr1∆): 2.46 ± 0.044

Sequence: KQIVHDSGRGAPLAKVV [RPL2A]
- protein stability index (doa10∆): 2.16 ± 0.22
- protein stability index (pdr5∆): 2.16 ± 0.18
- protein stability index (ubr1∆): 2.41 ± 0.17

Sequence: MTTPQNISSSQQLLPAP [DSN1]
- protein stability index (doa10∆): 2.82 ± 0.049
- protein stability index (pdr5∆): 2.89 ± 0.04
- protein stability index (san1∆): 2.74 ± 0.036
- protein stability index (ubr1∆): 2.81 ± 0.038

Sequence: ANFIFSPASGIVDKYIG [RPT4]
- protein stability index (doa10∆): 2.81 ± 0.067
- protein stability index (pdr5∆): 2.79 ± 0.097
- protein stability index (san1∆): 1.93 ± 0.12
- protein stability index (ubr1∆): 2.42 ± 0.077

Sequence: ASEREELALIEEAYDNP [PRP8]
- protein stability index (doa10∆): 3 ± 0.12
- protein stability index (pdr5∆): 3.23 ± 0.096
- protein stability index (san1∆): 3.35 ± 0.065
- protein stability index (ubr1∆): 3.5 ± 0.14

Sequence: NNTNNANSSITPAFGSN [YJL041W/NSP1]
- protein stability index (doa10∆): 3.06 ± 0.11
- protein stability index (pdr5∆): 3.06 ± 0.11
- protein stability index (san1∆): 2.86 ± 0.11
- protein stability index (ubr1∆): 3.06 ± 0.12

Sequence: EFQIEDAIWSLVFQLAK [SRB8]
- protein stability index (doa10∆): 3.63 ± 0.18
- protein stability index (pdr5∆): 3.36 ± 0.23

Sequence: ETDHANTENNDPDIPMT [IRR1]
- protein stability index (doa10∆): 2.74 ± 0.09
- protein stability index (pdr5∆): 2.59 ± 0.066
- protein stability index (san1∆): 2.81 ± 0.048
- protein stability index (ubr1∆): 2.68 ± 0.07

Sequence: NYILNFKQSNSETFLQF [CDC53]
- protein stability index (doa10∆): 2.57 ± 0.13
- protein stability index (pdr5∆): 1.43 ± 0.1
- protein stability index (san1∆): 1.77 ± 0.17
- protein stability index (ubr1∆): 2.12 ± 0.11

Sequence: SASTSATGISGSVSEET [ECM29]
- protein stability index (doa10∆): 3.34 ± 0.047
- protein stability index (pdr5∆): 3.25 ± 0.047
- protein stability index (san1∆): 3.12 ± 0.041
- protein stability index (ubr1∆): 3.33 ± 0.042

Sequence: ILAAAHRDAYSGGSVNL [PRE2]
- protein stability index (doa10∆): 2.86 ± 0.078
- protein stability index (pdr5∆): 3.2 ± 0.092
- protein stability index (san1∆): 2.79 ± 0.062
- protein stability index (ubr1∆): 2.89 ± 0.045

Sequence: DSTLILEQLAQHTTESD [RPB2]
- protein stability index (doa10∆): 2.17 ± 0.05
- protein stability index (pdr5∆): 2.67 ± 0.055
- protein stability index (san1∆): 2.46 ± 0.072
- protein stability index (ubr1∆): 2.43 ± 0.052

Sequence: VRDELRKVEKEKNEKER [UBP6]
- protein stability index (san1∆): 3.5 ± 0.13
- protein stability index (ubr1∆): 3.78 ± 0.2

Sequence: MSSNTSSVMSSPRVEKR [YOR098C/NUP1]
- protein stability index (doa10∆): 3.18 ± 0.084
- protein stability index (pdr5∆): 3.18 ± 0.093
- protein stability index (san1∆): 3.15 ± 0.078
- protein stability index (ubr1∆): 3.01 ± 0.088

Sequence: SFTSATERHIQVGDGLE [PRE7]
- protein stability index (doa10∆): 2.79 ± 0.098
- protein stability index (pdr5∆): 2.56 ± 0.075
- protein stability index (san1∆): 3.35 ± 0.091
- protein stability index (ubr1∆): 2.85 ± 0.049

Sequence: LTWLSSFSVCKIRCFRY [IRR1]
- protein stability index (doa10∆): 2.07 ± 0.053
- protein stability index (pdr5∆): 1.59 ± 0.054
- protein stability index (san1∆): 1.58 ± 0.087
- protein stability index (ubr1∆): 1.61 ± 0.04

Sequence: KSKREEEAKSVLPAATK [ARP9]
- protein stability index (doa10∆): 1.1 ± 0.092
- protein stability index (pdr5∆): 1.37 ± 0.067
- protein stability index (san1∆): 1.29 ± 0.11
- protein stability index (ubr1∆): 1.21 ± 0.054

Sequence: VKRRRDMLEHINLAMNE [SRB4]
- protein stability index (doa10∆): 1.3 ± 0.096
- protein stability index (pdr5∆): 1.33 ± 0.12
- protein stability index (san1∆): 1.14 ± 0.19
- protein stability index (ubr1∆): 1.2 ± 0.078

Sequence: VLAQYHEAKERIRQKEV [SNF6]
- protein stability index (ubr1∆): 3.4 ± 0.18

Sequence: NYTQNIDNLESYAGIST [SIR2]
- protein stability index (doa10∆): 2.92 ± 0.059
- protein stability index (pdr5∆): 2.96 ± 0.09
- protein stability index (san1∆): 2.87 ± 0.071
- protein stability index (ubr1∆): 3.01 ± 0.044

Sequence: IRVTNSFALPFEEDEKN [RPN8]
- protein stability index (doa10∆): 2.67 ± 0.062
- protein stability index (pdr5∆): 2.48 ± 0.046
- protein stability index (san1∆): 3.05 ± 0.044
- protein stability index (ubr1∆): 3.15 ± 0.043

Sequence: PANAEPQAVTITSIMDD [ITC1]
- protein stability index (doa10∆): 2.39 ± 0.11
- protein stability index (pdr5∆): 2.83 ± 0.09
- protein stability index (san1∆): 2.49 ± 0.069
- protein stability index (ubr1∆): 3.02 ± 0.11

Sequence: TIGGGLFGNKPTTTTGG [YGR119C/NUP57]
- protein stability index (doa10∆): 3 ± 0.094
- protein stability index (pdr5∆): 3.25 ± 0.21
- protein stability index (san1∆): 3.56 ± 0.15

Sequence: GAKQTQGGAMNKKSEQA [SRP72]
- protein stability index (doa10∆): 2.77 ± 0.067
- protein stability index (pdr5∆): 3.07 ± 0.07
- protein stability index (san1∆): 3.26 ± 0.049
- protein stability index (ubr1∆): 3.47 ± 0.054

Sequence: DDFTNELKAELDRYKRE [SEM1]
- protein stability index (doa10∆): 3.09 ± 0.17
- protein stability index (pdr5∆): 3.36 ± 0.14
- protein stability index (san1∆): 2.97 ± 0.11
- protein stability index (ubr1∆): 3.47 ± 0.24

Sequence: AKNRILASKIKQYERLR [RRI1]
- protein stability index (doa10∆): 2.48 ± 0.052
- protein stability index (pdr5∆): 2.4 ± 0.049
- protein stability index (san1∆): 2.37 ± 0.051
- protein stability index (ubr1∆): 2.58 ± 0.036

Sequence: IKEFVDDLKKDHIAIDW [DSN1]
- protein stability index (doa10∆): 2.56 ± 0.08
- protein stability index (pdr5∆): 2.96 ± 0.075
- protein stability index (san1∆): 2.73 ± 0.076
- protein stability index (ubr1∆): 2.75 ± 0.059

Sequence: ALKKSRSKGKQNRPYNH [RPC17]
- protein stability index (doa10∆): 3.04 ± 0.093
- protein stability index (pdr5∆): 2.46 ± 0.1
- protein stability index (san1∆): 2.5 ± 0.1
- protein stability index (ubr1∆): 2.42 ± 0.091

Sequence: MTTQQEEQRSDTKNSKS [ISW2]
- protein stability index (doa10∆): 3.26 ± 0.17
- protein stability index (pdr5∆): 3.08 ± 0.18
- protein stability index (san1∆): 2.73 ± 0.26
- protein stability index (ubr1∆): 3.2 ± 0.19

Sequence: LYGTAIGARSQGAKTYL [PRE5]
- protein stability index (doa10∆): 2.88 ± 0.13
- protein stability index (pdr5∆): 3.21 ± 0.079
- protein stability index (san1∆): 3.04 ± 0.078
- protein stability index (ubr1∆): 3.13 ± 0.079

Sequence: SDSLDIAQGIDLVRDID [SRP72]
- protein stability index (doa10∆): 3.29 ± 0.11
- protein stability index (pdr5∆): 3.38 ± 0.088
- protein stability index (san1∆): 3.09 ± 0.077
- protein stability index (ubr1∆): 3.26 ± 0.1

Sequence: NFKKFNERRKDLAERAS [SMC3]
- protein stability index (doa10∆): 1.47 ± 0.061
- protein stability index (pdr5∆): 1.97 ± 0.073
- protein stability index (san1∆): 1.57 ± 0.11
- protein stability index (ubr1∆): 2.05 ± 0.097

Sequence: FGGSQPNSGTATTGGFG [YGR119C/NUP57]
- protein stability index (doa10∆): 2.98 ± 0.2
- protein stability index (pdr5∆): 3.05 ± 0.12
- protein stability index (san1∆): 3.15 ± 0.18
- protein stability index (ubr1∆): 3.4 ± 0.2
